Data reported in paper PMC9384509.

Assays:
[1] = target: human Angiotensin Converting Enzyme 2 (ACE2, amino acids 19-615) fused to human IgG Fc (human) (UniProt Q9BYF1); experiment: SPR
[2] = target: human Angiotensin Converting Enzyme 2 (ACE2, amino acids 19-615) fused to human IgG Fc (human) (UniProt Q9BYF1)

Substance | percent reduction of binding against RBD-WT [1] [%] | reduction of the surface membrane ACE2 level on pericytes (immunohistochemistry, overlap with PDGFRβ) after 3 h of RBD (0.7 mg/l) on hamster brain slices; ACE2 is the endogenous hamster protein [2] [%]
SARS-CoV-2 receptor binding domain Y489R mutant (RBD-Y489R) (domain or fragment; other documents disagree on this pair) | 94 | 
SARS-CoV-2 receptor binding domain (RBD, original Wuhan variant), amino acids 330-532 (domain or fragment) |  | 32
